Laboratory results published in patent US20140087995A1 (published 2014).
Numbered stars: 1 amine (or outer) side, 2 acyl side, 3 side chain; on linkers, the order of the positions; unused ones are H or OH. Bridge positions count the residues as written; N and C are the ends. Side chains are listed from the residue outwards. Ends that are not written are not given here. * marks the point of attachment. C20 diacid = O=C(O)CCCCCCCCCCCCCCCCCCC(=O)*; γGlu = O=C(O)[C@H](CCC(=O)[*:2])N[*:1]

T1: human amylin 3(a) receptor (human calcitonin receptor plus RAMP-3) (human, UniProt P30988 25-474; O60896 24-148, limits assumed)
T1 sequence (looked up) 1: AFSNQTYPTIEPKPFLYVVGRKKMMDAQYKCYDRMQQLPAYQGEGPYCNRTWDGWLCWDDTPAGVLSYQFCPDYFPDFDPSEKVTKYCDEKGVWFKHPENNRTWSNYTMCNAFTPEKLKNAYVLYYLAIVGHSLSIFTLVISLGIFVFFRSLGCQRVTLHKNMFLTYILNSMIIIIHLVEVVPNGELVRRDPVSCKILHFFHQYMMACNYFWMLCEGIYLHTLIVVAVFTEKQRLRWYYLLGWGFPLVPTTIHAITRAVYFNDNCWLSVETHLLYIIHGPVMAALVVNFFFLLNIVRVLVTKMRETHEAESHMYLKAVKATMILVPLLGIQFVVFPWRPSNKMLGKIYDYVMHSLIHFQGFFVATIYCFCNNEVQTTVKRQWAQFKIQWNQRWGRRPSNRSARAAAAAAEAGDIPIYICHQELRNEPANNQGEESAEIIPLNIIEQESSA
T1 sequence (looked up) 2: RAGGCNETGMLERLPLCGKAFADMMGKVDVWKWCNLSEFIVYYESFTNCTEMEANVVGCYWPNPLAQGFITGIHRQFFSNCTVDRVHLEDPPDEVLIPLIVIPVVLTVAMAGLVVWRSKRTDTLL

T2: human calcitonin receptor (human, UniProt P30988 25-474)
T2 sequence (looked up): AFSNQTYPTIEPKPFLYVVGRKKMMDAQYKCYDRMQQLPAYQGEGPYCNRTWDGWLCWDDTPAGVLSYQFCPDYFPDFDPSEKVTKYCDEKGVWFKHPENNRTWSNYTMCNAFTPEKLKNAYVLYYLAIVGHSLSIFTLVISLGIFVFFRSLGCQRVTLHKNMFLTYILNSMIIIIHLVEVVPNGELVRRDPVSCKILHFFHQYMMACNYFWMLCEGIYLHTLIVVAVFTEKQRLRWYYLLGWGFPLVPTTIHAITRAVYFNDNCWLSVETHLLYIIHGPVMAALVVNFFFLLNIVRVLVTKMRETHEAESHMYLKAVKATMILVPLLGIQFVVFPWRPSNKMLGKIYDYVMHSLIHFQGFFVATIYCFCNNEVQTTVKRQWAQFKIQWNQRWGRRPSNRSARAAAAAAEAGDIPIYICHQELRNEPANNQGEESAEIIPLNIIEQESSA


How the values were obtained:
[1] = biological target: T1, human amylin 3(a) receptor (human …); experiment: cell-based or functional assay
[2] = biological target: T2, human calcitonin receptor; experiment: cell-based or functional assay
[3] = biological target: T1, human amylin 3(a) receptor (human …); experiment: SPA competition binding, displacement of 125I-rat amylin from membranes of Amylin 3(a)/CRE-luc BHK cells (Assay V)
Method in brief: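 SPA beads with BHK Amylin 3(a)/CRE-luc cell membranes (35 ng/μL final) in 50 mM Hepes pH 7.4, 1 mM CaCl2, 5 mM MgCl₂, 0.1% OA, 0.02% Tween20.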

| Binder | Ratio hCT/hAmylin funct. [1] | hAmylin-R funct. EC50 [1] | hCTR funct. EC50 [2] | IC50 [3] |
| --- | --- | --- | --- | --- |
| K([γGlu-C20 diacid])CNTATCATQRLAEFLRHSSPNFGAIPSSTNVGPHTY-NH2 (disulfide 2-7) |  | 101 pM | 1450 pM | 0.179 nM |
| K([γGlu-C20 diacid])CNTATCATQRLAEFLRHSSPNFGAIPSSTNVGPNTP-NH2 (disulfide 2-7; N-terminus assumed; SMILES CC[C@H](C)[C@H](NC(=O)[C@H](C)NC(=O)CNC(=O)[C@H](Cc1ccccc1)NC(=O)[C@H](CC(N)=O)NC(=O)[C@@H]1CCCN1C(=O)[C@H](CO)NC(=O)[C@H](CO)NC(=O)[C@H](Cc1c[nH]cn1)NC(=O)[C@H](CCCNC(=N)N)NC(=O)[C@H](CC(C)C)NC(=O)[C@H](Cc1ccccc1)NC(=O)[C@H](CCC(=O)O)NC(=O)[C@H](C)NC(=O)[C@H](CC(C)C)NC(=O)[C@H](CCCNC(=N)N)NC(=O)[C@H](CCC(N)=O)NC(=O)[C@@H](NC(=O)[C@H](C)NC(=O)[C@@H]1CSSC[C@H](NC(=O)[C@@H](N)CCCCNC(=O)CC[C@H](NC(=O)CCCCCCCCCCCCCCCCCCC(=O)O)C(=O)O)C(=O)N[C@@H](CC(N)=O)C(=O)N[C@@H]([C@@H](C)O)C(=O)N[C@@H](C)C(=O)N[C@@H]([C@@H](C)O)C(=O)N1)[C@@H](C)O)C(=O)N1CCC[C@H]1C(=O)N[C@@H](CO)C(=O)N[C@@H](CO)C(=O)N[C@H](C(=O)N[C@@H](CC(N)=O)C(=O)N[C@H](C(=O)NCC(=O)N1CCC[C@H]1C(=O)N[C@@H](CC(N)=O)C(=O)N[C@H](C(=O)N1CCC[C@H]1C(N)=O)[C@@H](C)O)C(C)C)[C@@H](C)O) | 0.9 | 105 pM | 90 pM | 0.214 nM |
| K([γGlu-γGlu-C20 diacid])CNTATCATQRLAEFLRHSSPNFGAIPSSTNVGRNTY-NH2 (disulfide 2-7; N-terminus assumed; SMILES CC[C@H](C)[C@H](NC(=O)[C@H](C)NC(=O)CNC(=O)[C@H](Cc1ccccc1)NC(=O)[C@H](CC(N)=O)NC(=O)[C@@H]1CCCN1C(=O)[C@H](CO)NC(=O)[C@H](CO)NC(=O)[C@H](Cc1c[nH]cn1)NC(=O)[C@H](CCCNC(=N)N)NC(=O)[C@H](CC(C)C)NC(=O)[C@H](Cc1ccccc1)NC(=O)[C@H](CCC(=O)O)NC(=O)[C@H](C)NC(=O)[C@H](CC(C)C)NC(=O)[C@H](CCCNC(=N)N)NC(=O)[C@H](CCC(N)=O)NC(=O)[C@@H](NC(=O)[C@H](C)NC(=O)[C@@H]1CSSC[C@H](NC(=O)[C@@H](N)CCCCNC(=O)CC[C@H](NC(=O)CC[C@H](NC(=O)CCCCCCCCCCCCCCCCCCC(=O)O)C(=O)O)C(=O)O)C(=O)N[C@@H](CC(N)=O)C(=O)N[C@@H]([C@@H](C)O)C(=O)N[C@@H](C)C(=O)N[C@@H]([C@@H](C)O)C(=O)N1)[C@@H](C)O)C(=O)N1CCC[C@H]1C(=O)N[C@@H](CO)C(=O)N[C@@H](CO)C(=O)N[C@H](C(=O)N[C@@H](CC(N)=O)C(=O)N[C@H](C(=O)NCC(=O)N[C@@H](CCCNC(=N)N)C(=O)N[C@@H](CC(N)=O)C(=O)N[C@H](C(=O)N[C@@H](Cc1ccc(O)cc1)C(N)=O)[C@@H](C)O)C(C)C)[C@@H](C)O, also called compound 88) | 8.5 | 773 pM | 6560 pM | 0.75 nM |

Further binders by falling IC50 [3], results first:

| Ratio hCT/hAmylin funct. [1] | hAmylin-R funct. EC50 [1] | hCTR funct. EC50 [2] | IC50 [3] | Binder |
| --- | --- | --- | --- | --- |
|  | 703 pM | 7430 pM | 0.957 nM | K([γGlu-γGlu-C20 diacid])CNTATCATQRLAEFLRHSSPNFGAIPSSTNVGRETY-NH2 (disulfide 2-7; N-terminus assumed; SMILES CC[C@H](C)[C@H](NC(=O)[C@H](C)NC(=O)CNC(=O)[C@H](Cc1ccccc1)NC(=O)[C@H](CC(N)=O)NC(=O)[C@@H]1CCCN1C(=O)[C@H](CO)NC(=O)[C@H](CO)NC(=O)[C@H](Cc1c[nH]cn1)NC(=O)[C@H](CCCNC(=N)N)NC(=O)[C@H](CC(C)C)NC(=O)[C@H](Cc1ccccc1)NC(=O)[C@H](CCC(=O)O)NC(=O)[C@H](C)NC(=O)[C@H](CC(C)C)NC(=O)[C@H](CCCNC(=N)N)NC(=O)[C@H](CCC(N)=O)NC(=O)[C@@H](NC(=O)[C@H](C)NC(=O)[C@@H]1CSSC[C@H](NC(=O)[C@@H](N)CCCCNC(=O)CC[C@H](NC(=O)CC[C@H](NC(=O)CCCCCCCCCCCCCCCCCCC(=O)O)C(=O)O)C(=O)O)C(=O)N[C@@H](CC(N)=O)C(=O)N[C@@H]([C@@H](C)O)C(=O)N[C@@H](C)C(=O)N[C@@H]([C@@H](C)O)C(=O)N1)[C@@H](C)O)C(=O)N1CCC[C@H]1C(=O)N[C@@H](CO)C(=O)N[C@@H](CO)C(=O)N[C@H](C(=O)N[C@@H](CC(N)=O)C(=O)N[C@H](C(=O)NCC(=O)N[C@@H](CCCNC(=N)N)C(=O)N[C@@H](CCC(=O)O)C(=O)N[C@H](C(=O)N[C@@H](Cc1ccc(O)cc1)C(N)=O)[C@@H](C)O)C(C)C)[C@@H](C)O) |
| 5.2 | 161 pM | 841 pM | 0.14 nM | K([γGlu-C20 diacid])CNTATCATQRLAEFLRHSSPNFGAIPSSTNVGPETY-NH2 (disulfide 2-7; N-terminus assumed; SMILES CC[C@H](C)[C@H](NC(=O)[C@H](C)NC(=O)CNC(=O)[C@H](Cc1ccccc1)NC(=O)[C@H](CC(N)=O)NC(=O)[C@@H]1CCCN1C(=O)[C@H](CO)NC(=O)[C@H](CO)NC(=O)[C@H](Cc1c[nH]cn1)NC(=O)[C@H](CCCNC(=N)N)NC(=O)[C@H](CC(C)C)NC(=O)[C@H](Cc1ccccc1)NC(=O)[C@H](CCC(=O)O)NC(=O)[C@H](C)NC(=O)[C@H](CC(C)C)NC(=O)[C@H](CCCNC(=N)N)NC(=O)[C@H](CCC(N)=O)NC(=O)[C@@H](NC(=O)[C@H](C)NC(=O)[C@@H]1CSSC[C@H](NC(=O)[C@@H](N)CCCCNC(=O)CC[C@H](NC(=O)CCCCCCCCCCCCCCCCCCC(=O)O)C(=O)O)C(=O)N[C@@H](CC(N)=O)C(=O)N[C@@H]([C@@H](C)O)C(=O)N[C@@H](C)C(=O)N[C@@H]([C@@H](C)O)C(=O)N1)[C@@H](C)O)C(=O)N1CCC[C@H]1C(=O)N[C@@H](CO)C(=O)N[C@@H](CO)C(=O)N[C@H](C(=O)N[C@@H](CC(N)=O)C(=O)N[C@H](C(=O)NCC(=O)N1CCC[C@H]1C(=O)N[C@@H](CCC(=O)O)C(=O)N[C@H](C(=O)N[C@@H](Cc1ccc(O)cc1)C(N)=O)[C@@H](C)O)C(C)C)[C@@H](C)O) |
